Experimental data as given in patent US20240392035A1 (DENALI THERAPEUTICS, published 2024).

B1: anti-HER2_DIV/DII_scFv_1 (bispecific antibody, human IgG1, kappa, L234A L235A)
heavy 1: EVQLVESGGGLVQPGGSLRLSCAASGFTFTDYTMDWVRQAPGKGLEWVADVNPNSGGSIYNQRFKGRFTLSVDRSKNTLYLQMNSLRAEDTAVYYCARNLGPSFYFDYWGQGTLVTVSSASTKGPSVFPLAPSSKSTSGGTAALGCLVKDYFPEPVTVSWNSGALTSGVHTFPAVLQSSGLYSLSSVVTVPSSSLGTQTYICNVNHKPSNTKVDKKVEPKSCDKTHTCPPCPAPEAAGGPSVFLFPPKPKDTLMISRTPEVTCVVVDVSHEDPEVKFNWYVDGVEVHNAKTKPREEQYNSTYRVVSVLTVLHQDWLNGKEYKCKVSNKALPAPIEKTISKAKGQPREPQVYTLPPSRDELTKNQVSLWCLVKGFYPSDIAVEWESYGTEWSNYKTTPPVLDSDGSFFLYSKLTVSKEEWQQGFVFSCSVMHEALHNHYTQKSLSLSPGK
heavy 2: not shown
light: not shown
B2: Bispecific Protein #9 (bispecific antibody, human IgG1, kappa, L234A L235A)
heavy 1: EVQLVESGGGLVQPGGSLRLSCAASGFTFTDYTMDWVRQAPGKGLEWVADVNPNSGGSIYNQRFKGRFTLSVDRSKNTLYLQMNSLRAEDTAVYYCARNLGPSFYFDYWGQGTLVTVSSASTKGPSVFPLAPSSKSTSGGTAALGCLVKDYFPEPVTVSWNSGALTSGVHTFPAVLQSSGLYSLSSVVTVPSSSLGTQTYICNVNHKPSNTKVDKKVEPKSCDKTHTCPPCPAPEAAGGPSVFLFPPKPKDTLMISRTPEVTCVVVDVSHEDPEVKFNWYVDGVEVHNAKTKPREEQYNSTYRVVSVLTVLHQDWLNGKEYKCKVSNKALPAPIEKTISKAKGQPREPQVYTLPPSRDELTKNQVSLWCLVKGFYPSDIAVEWESYGTEWSNYKTTPPVLDSDGSFFLYSKLTVSKEEWQQGFVFSCSVMHEALHNHYTQKSLSLSPGK
heavy 2: not shown
light: not shown
B3: Bispecific Protein #2 (bispecific antibody, human IgG1, kappa, L234A L235A)
heavy 1: EVQLVESGGGLVQPGGSLRLSCAASGFTFTDYTMDWVRQAPGKGLEWVADVNPNSGGSIYNQRFKGRFTLSVDRSKNTLYLQMNSLRAEDTAVYYCARNLGPSFYFDYWGQGTLVTVSSASTKGPSVFPLAPSSKSTSGGTAALGCLVKDYFPEPVTVSWNSGALTSGVHTFPAVLQSSGLYSLSSVVTVPSSSLGTQTYICNVNHKPSNTKVDKKVEPKSCDKTHTCPPCPAPEAAGGPSVFLFPPKPKDTLMISRTPEVTCVVVDVSHEDPEVKFNWYVDGVEVHNAKTKPREEQYNSTYRVVSVLTVLHQDWLNGKEYKCKVSNKALPAPIEKTISKAKGQPREPQVYTLPPSRDELTKNQVSLWCLVKGFYPSDIAVEWESYGTEWSNYKTTPPVLDSDGSFFLYSKLTVSKEEWQQGFVFSCSVMHEALHNHYTQKSLSLSPGK
heavy 2: not shown
light: not shown

Assays:
human TfR on cells = human TfR on cells (human, UniProt P02786 1-760); experiment: cell-based or functional assay
[1] = target: HER2 on HER2-overexpressing tumor cell lines (UniProt P04626 23-1255, limits assumed); experiment: cell-based or functional assay
[2] = target: T1, recombinant human TfR apical domain (human, UniProt P02786 198-378); experiment: SPR (Biacore), protein captured on anti-human Fab chip, human TfR apical domain injected, 1:1 Langmuir fit
T1 construct: also called recombinant TfR apical domain; transferrin receptor protein 1
Description: Affinities of the bispecific proteins were measured by SPR using a Biacore T200 or a Biacore 8K. Biacore™ Series S CM5 sensor chips were immobilized with monoclonal mouse anti-human IgG (Fc) antibody for HER2 affinity measurements or mouse anti-human Fab for TfR affinity measurements (human antibody or Fab capture kit from GE Healthcare). Serial 3-fold dilutions of analyte (recombinant HER2 extracellular domain or recombinant TfR apical domain) were injected at a flow rate of […]. Each sample was analyzed using a 3-minute association and a 10-minute dissociation for HER2 extracellular domain binding and a 40-second association and a 3-minute dissociation for human TfR apical domain binding. After each injection, the chip was regenerated using 3 M MgCl₂ or 50 mM glycine at pH 2.0. Binding response was corrected by subtracting the RU from a flow cell capturing an irrelevant IgG at similar density. A 1:1 Languir model of simultaneous fitting of kon and koff was used for kinetics analysis. […] The two constructs are described below.

T1 sequence (P02786 198-378 limits assumed): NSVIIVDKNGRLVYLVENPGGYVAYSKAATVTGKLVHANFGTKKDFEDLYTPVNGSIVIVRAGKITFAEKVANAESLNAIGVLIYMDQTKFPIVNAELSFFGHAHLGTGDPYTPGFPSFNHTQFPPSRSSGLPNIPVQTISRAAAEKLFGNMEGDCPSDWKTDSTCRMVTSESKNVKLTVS

| Binder | maximum growth inhibition, OE19 cells, WST-1 assay (human TfR on cells) | maximum growth inhibition, OE19 cells, WST-1 assay [1] | Kd [2] |
| --- | --- | --- | --- |
| B1 | ~80% | ~80% | – |
| B2 | – | – | 500 nM |
| B3 | – | – | 480 nM |
